Laboratory results: PMC5067487

Experiments:
Assay in all cases: ITC; peptide (100 uM stock in ddH2O) titrated into PadeB1 or variant (5-10 uM) in the sample cell; 50 mM Tris, 5 mM MgCl2, pH 8.0; 25 °C; One Set of Sites model; triplicate
[1] = molecular target: PadeB1 (Paenibacillus dendritiformis C454)
[2] = molecular target: PadeB1 D23A (Paenibacillus dendritiformis C454)
[3] = molecular target: PadeB1 N40A (Paenibacillus dendritiformis C454)
[4] = molecular target: PadeB1 Y38A (Paenibacillus dendritiformis C454)
[5] = molecular target: PadeB1 I61A (Paenibacillus dendritiformis C454)
[6] = molecular target: PadeB1 D79A (Paenibacillus dendritiformis C454)
[7] = molecular target: PadeB1 K28A (Paenibacillus dendritiformis C454)
[8] = molecular target: PadeB1 W49A (Paenibacillus dendritiformis C454)

Kd [1] [nM] | Kd [2] [nM] | Kd [3] [nM] | Kd [4] [nM] | Kd [5] [nM] | Kd [6] [nM] | Kd [7] [nM] | Kd [8] [nM] | Substance
4 | – | – | – | – | – | – | – | full-length precursor peptide GP-PadeA
5.3 | 2.4 | 16 | 6.2 | 73 | 150 | 2.7 | 140 | leader peptide of PadeA
